The target in the test is prolactin-receptor on NB2-11 cells (rat lymphoma cells) (rat (NB2-11 rat lymphoma cells)) (UniProt P05710). In words: cell-based or functional assay.
UniProt P05710, sequence (P05710 20-610): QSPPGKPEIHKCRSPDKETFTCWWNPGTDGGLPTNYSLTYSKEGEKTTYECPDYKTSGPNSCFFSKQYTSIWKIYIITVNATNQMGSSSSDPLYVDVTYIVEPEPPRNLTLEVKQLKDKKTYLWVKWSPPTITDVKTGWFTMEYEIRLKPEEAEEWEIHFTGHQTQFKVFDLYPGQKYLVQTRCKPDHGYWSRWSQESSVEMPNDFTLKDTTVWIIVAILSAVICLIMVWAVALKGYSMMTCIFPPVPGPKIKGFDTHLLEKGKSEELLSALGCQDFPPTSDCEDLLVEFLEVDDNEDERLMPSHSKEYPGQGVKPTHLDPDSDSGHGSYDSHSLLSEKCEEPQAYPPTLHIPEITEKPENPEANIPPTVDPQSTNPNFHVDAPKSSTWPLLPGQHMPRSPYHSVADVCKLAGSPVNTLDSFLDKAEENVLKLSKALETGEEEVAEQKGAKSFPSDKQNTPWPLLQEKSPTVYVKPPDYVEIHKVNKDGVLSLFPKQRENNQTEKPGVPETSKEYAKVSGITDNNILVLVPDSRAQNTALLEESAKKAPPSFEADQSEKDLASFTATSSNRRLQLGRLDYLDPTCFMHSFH

“CTP modified hGH (hGH with one CTP at the N terminus and two CTP at the C terminus, expressed in HeLa cells) (from UniProt P0DN86 138-165; P01241 27-217; P0DN86 138-165; P0DN86 138-165)” displayed an NB2-11 cell proliferation, WST formazan absorbance (OD), dose response 0.039 of 593; an NB2-11 cell proliferation, WST formazan absorbance (OD), dose response 0.059 of 684; an NB2-11 cell proliferation, WST formazan absorbance (OD), dose response 0.088 of 858; an NB2-11 cell proliferation, WST formazan absorbance (OD), dose response 0.132 of 1050. Moreover, the NB2-11 cell proliferation, WST formazan absorbance (OD), dose response 0.198 is 1290; the NB2-11 cell proliferation, WST formazan absorbance (OD), dose response 0.296 came out at 1570; the NB2-11 cell proliferation, WST formazan absorbance (OD), dose response 0.444 was 1800; the NB2-11 cell proliferation, WST formazan absorbance (OD), dose response 0.667 amounted to 1970. In addition, the NB2-11 cell proliferation, WST formazan absorbance (OD), dose response 1 stood at 2110.

For the origin of these results see patent US20180086816A1.
